Experiment: ion mobility collision cross-section
Type: physicochemical
Conditions: native IM-MS, N2, calibrated with β-lactoglobulin and avidin
Source text: To isolate a stable HspB1-FLNCd18–21 complex and localize the binding within HspB1, we performed native ion mobility MS (IM-MS) experiments. […] Next, we mixed FLNCd18–21 with either HspB1_84–171 or peptides mimicking the PPR, because this region is phosphorylated in the MLP KO mice (Fig. 1C) and generally upon biomechanical stress ([26]) and becomes exposed thereafter. This strategy of using segments of HspB1 meant that we could avoid the problems of insolubilization of the full-length protein upon interaction with FLNC d18–21, as well as generally mitigate the confounding effects associated with the chaperone’s intrinsic polydispersity.
Because HspB1 can form disulfide-linked dimers, experiments involving the ACD were performed in the presence of 10-fold molar excess DTT. Gold-plated capillaries were prepared in-house. Native MS and IM-MS data were recorded on a Synapt G1 mass spectrometer (Waters) modified for the transmission of intact noncovalent protein complexes. HspB1_77–171 variants were analyzed at a concentration of 10 μM in 200 mM ammonium acetate (pH 6.9). […]
CCSs (Ω) of models from the PDB (trimmed in PyMOL as described in the Supplementary Materials) were calculated by the projection approximation method using IMPACT ([60]), accounting for N2 as the collision gas. […]

B1: FLNCd18–21: Human FLNC domains 18-21 (protein)
chain: TAKITGDDSMRTSQLNVGTSTDVSLKITESDLSQLTASIRAPSGNEEPCLLKRLPNRHIGISFTPKEVGEHVVSVRKSGKHVTNSPFKILVGPSEIGDASKVRVWGKGLSEGHTFQVAEFIVDTRNAGYGGLGLSIEGPSKVDINCEDMEDGTCKVTYCPTEPGTYIINIKFADKHVPGSPFTVKVTGEGRMKESITRRRQAPSIATIGSTCDLNLKIPGNWFQMVSAQERLTRTFTRSSHTYTRTERTEISKTRGGETKREVRVEESTQVGGDPFPAVFGDFLGRERLGSFGSITRQQEGEASSQDMTAQVTSPSGKVEAAEIVEGEDSAYSVRFVPQEMGPHTVAVKYRGQHVPGSPFQFTVGPLGEGGAHKVRAGGTGLERGVAGVPAEFSIWTREAGAGGLSIAVEGPSKAEIAFEDRKDGSCGVSYVVQEPGDYEVSIKFNDEHIPDSPFVVPVASLSDDA
modifications: left off: His6, C-terminal, state not stated | EEF, C-terminal, kept
With B1 the “collision cross section (CCS)” value was 37.2 ± 0.8 nm^2.

— PMC6530996, “HspB1 phosphorylation regulates its intramolecular dynamics and mechanosensitive molecular chaperone interaction with filamin C” (Science Advances, 2019)
